This is an account of results in PMC4267625, “Ubiquitin recognition by FAAP20 expands the complex interface beyond the canonical UBZ domain” (Nucleic Acids Research, 2014).

Some results are limits rather than exact numbers.

First the molecules themselves.
B1: human FAAP20 UBZ (residues 140-180 of FAAP20 isoform 2), wild type (domain or fragment, UniProt Q6NZ36 140-180, looked up)
chain: GAAALRSCPMCQKEFAPRLTQLDVDSHLAQCLAESTEDVTW
notes: ends at the C-terminal W180; ZnSO4 was added at induction; 15N/13C-labelled for NMR; also called WT FAAP20; apo FAAP20; source: E. coli BL21 STAR (DE3), purified (Ni-NTA, TEV cleavage, second Ni-NTA, Superdex 75); not shown: His10, N-terminal, cleaved; GB1, N-terminal, cleaved
B2: human FAAP20 UBZ L171A (domain or fragment, UniProt Q6NZ36 140-180, looked up)
chain: GAAALRSCPMCQKEFAPRLTQLDVDSHLAQCAAESTEDVTW
notes: source: E. coli BL21 STAR (DE3), purified (Ni-NTA, TEV cleavage, second Ni-NTA, Superdex 75); not shown: His10, N-terminal, cleaved; GB1, N-terminal, cleaved
B3: human FAAP20 UBZ W180A (domain or fragment, UniProt Q6NZ36 140-180, looked up)
chain: GAAALRSCPMCQKEFAPRLTQLDVDSHLAQCLAESTEDVTA
notes: also called FAAP20 W180A mutant; source: E. coli BL21 STAR (DE3), purified (Ni-NTA, TEV cleavage, second Ni-NTA, Superdex 75); not shown: His10, N-terminal, cleaved; GB1, N-terminal, cleaved
B4: human FAAP20 UBZ D164A (domain or fragment, UniProt Q6NZ36 140-180, looked up)
chain: GAAALRSCPMCQKEFAPRLTQLDVASHLAQCLAESTEDVTW
notes: as for B2
B5: human FAAP20 UBZ A168Y (domain or fragment, UniProt Q6NZ36 140-180, looked up)
chain: GAAALRSCPMCQKEFAPRLTQLDVDSHLYQCLAESTEDVTW
notes: as for B2

The target in the experiment is T1, human ubiquitin, wild type (human, UniProt P0CG48 1-76).
T1 construct: ubiquitin, human; the mature ubiquitin unit cut from its precursor; also called WT ubiquitin; source: E. coli BL21 STAR (DE3), purified (Ni-NTA, thrombin cleavage, benzamidine column, second Ni-NTA, Superdex 75); not shown: His6, N-terminal, cleaved
In words: ITC; ubiquitin (2-3 mM) titrated into FAAP20 (0.2-0.3 mM); 25 mM sodium phosphate, 100 mM KCl, pH 7.0; 25°C; 28 injections of 10 μl; one-site binding fit. The following applies: both partners purified. For orientation: ITC needs no label: the signal is the heat of the interaction.
On to B1, for which the equilibrium dissociation constant (Kd) came to 9.26 µM.

The molecule B2 gave a Kd of 529 µM. This Kd lies about 57-fold higher than the previous one.

Turning to B3, the Kd was over 600 µM.

The molecule B4 returned a Kd of over 600 µM.

On to B5, for which the Kd is over 600 µM.

One may read the Kd as the constant that tells how readily two partners part at equilibrium. The low end stands for higher affinity, the high end for lower affinity.
